As usually defined, the Kd is the constant that tells how readily two partners part at equilibrium.

Sequences and labels used below:
B1: target 1 G13A,U19C (mixed)
RNA 1: CACCCGUGCAAAAAUGCAGGGGUCUAAAACUGAGCGGAUAACCUCUCUAUGG
RNA 2: GGGAAUGGAUCCACAUCUACGAAUUCGUACCACAGAGAAGUUAUCCGCUCACCGAGAUCGGAAGAGCACACGU
B2: target 1 insU 3' of 20,insC 3' of 9 (mixed)
RNA 1: CACCCGUGCAAAAAUGCAGGGGUCUAAAACUGAGCGGAUAACCUCUCUAUGG
RNA 2: GGGAAUGGAUCCACAUCUACGAAUUCGUACCAUUAGAGAGGUUACUCCGCUCACCGAGAUCGGAAGAGCACACGU
B3: target 1 insU 3' of 2,insU 3' of 1 (mixed)
RNA 1: CACCCGUGCAAAAAUGCAGGGGUCUAAAACUGAGCGGAUAACCUCUCUAUGG
RNA 2: GGGAAUGGAUCCACAUCUACGAAUUCGUACCAUAGAGAGGUUAUCCGCUCUAUCCGAGAUCGGAAGAGCACACGU
B4: target 2 MT 5'PFS ACG 3'PFS UCC (mixed)
RNA 1: CACCCGUGCAAAAUUGCAGGGGUCUAAAACCUUCUCCAAAUUGUUUCAUCCU
RNA 2: GGGAAUGGAUCCACAUCUACGAAUUCACGAGGAUGAAACAAUUUGGAGAAGUCCAGAUCGGAAGAGCACACGU
B5: target 2 MT 5'PFS UAA 3'PFS UCA (mixed)
RNA 1: CACCCGUGCAAAAUUGCAGGGGUCUAAAACCUUCUCCAAAUUGUUUCAUCCU
RNA 2: GGGAAUGGAUCCACAUCUACGAAUUCUAAAGGAUGAAACAAUUUGGAGAAGUCAAGAUCGGAAGAGCACACGU
B6: target 2 MT 5'PFS GGA 3'PFS UGU (mixed)
RNA 1: CACCCGUGCAAAAUUGCAGGGGUCUAAAACCUUCUCCAAAUUGUUUCAUCCU
RNA 2: GGGAAUGGAUCCACAUCUACGAAUUCGGAAGGAUGAAACAAUUUGGAGAAGUGUAGAUCGGAAGAGCACACGU
B7: target 2 MT 5'PFS CGG 3'PFS CUU (mixed)
RNA 1: CACCCGUGCAAAAUUGCAGGGGUCUAAAACCUUCUCCAAAUUGUUUCAUCCU
RNA 2: GGGAAUGGAUCCACAUCUACGAAUUCCGGAGGAUGAAACAAUUUGGAGAAGCUUAGAUCGGAAGAGCACACGU
B8: target 2 MT 5'PFS GGA 3'PFS CGC (mixed)
RNA 1: CACCCGUGCAAAAUUGCAGGGGUCUAAAACCUUCUCCAAAUUGUUUCAUCCU
RNA 2: GGGAAUGGAUCCACAUCUACGAAUUCGGAAGGAUGAAACAAUUUGGAGAAGCGCAGAUCGGAAGAGCACACGU
B9: target 2 MT 5'PFS UAG 3'PFS CUU (mixed)
RNA 1: CACCCGUGCAAAAUUGCAGGGGUCUAAAACCUUCUCCAAAUUGUUUCAUCCU
RNA 2: GGGAAUGGAUCCACAUCUACGAAUUCUAGAGGAUGAAACAAUUUGGAGAAGCUUAGAUCGGAAGAGCACACGU
B10: target 2 MT 5'PFS CGG 3'PFS CUA (mixed)
RNA 1: CACCCGUGCAAAAUUGCAGGGGUCUAAAACCUUCUCCAAAUUGUUUCAUCCU
RNA 2: GGGAAUGGAUCCACAUCUACGAAUUCCGGAGGAUGAAACAAUUUGGAGAAGCUAAGAUCGGAAGAGCACACGU
B11: target 2 MT 5'PFS UAA 3'PFS UCC (mixed)
RNA 1: CACCCGUGCAAAAUUGCAGGGGUCUAAAACCUUCUCCAAAUUGUUUCAUCCU
RNA 2: GGGAAUGGAUCCACAUCUACGAAUUCUAAAGGAUGAAACAAUUUGGAGAAGUCCAGAUCGGAAGAGCACACGU
B12: target 2 MT 5'PFS GGA 3'PFS CGU (mixed)
RNA 1: CACCCGUGCAAAAUUGCAGGGGUCUAAAACCUUCUCCAAAUUGUUUCAUCCU
RNA 2: GGGAAUGGAUCCACAUCUACGAAUUCGGAAGGAUGAAACAAUUUGGAGAAGCGUAGAUCGGAAGAGCACACGU
B13: target 2 MT 5'PFS UAG 3'PFS CUG (mixed)
RNA 1: CACCCGUGCAAAAUUGCAGGGGUCUAAAACCUUCUCCAAAUUGUUUCAUCCU
RNA 2: GGGAAUGGAUCCACAUCUACGAAUUCUAGAGGAUGAAACAAUUUGGAGAAGCUGAGAUCGGAAGAGCACACGU
B14: target 2 MT 5'PFS UAA 3'PFS UCG (mixed)
RNA 1: CACCCGUGCAAAAUUGCAGGGGUCUAAAACCUUCUCCAAAUUGUUUCAUCCU
RNA 2: GGGAAUGGAUCCACAUCUACGAAUUCUAAAGGAUGAAACAAUUUGGAGAAGUCGAGAUCGGAAGAGCACACGU
B15: target 2 MT 5'PFS GGA 3'PFS UGA (mixed)
RNA 1: CACCCGUGCAAAAUUGCAGGGGUCUAAAACCUUCUCCAAAUUGUUUCAUCCU
RNA 2: GGGAAUGGAUCCACAUCUACGAAUUCGGAAGGAUGAAACAAUUUGGAGAAGUGAAGAUCGGAAGAGCACACGU
B16: target 2 MT 5'PFS UAG 3'PFS UAU (mixed)
RNA 1: CACCCGUGCAAAAUUGCAGGGGUCUAAAACCUUCUCCAAAUUGUUUCAUCCU
RNA 2: GGGAAUGGAUCCACAUCUACGAAUUCUAGAGGAUGAAACAAUUUGGAGAAGUAUAGAUCGGAAGAGCACACGU
B17: target 2 MT 5'PFS GGA 3'PFS CGG (mixed)
RNA 1: CACCCGUGCAAAAUUGCAGGGGUCUAAAACCUUCUCCAAAUUGUUUCAUCCU
RNA 2: GGGAAUGGAUCCACAUCUACGAAUUCGGAAGGAUGAAACAAUUUGGAGAAGCGGAGAUCGGAAGAGCACACGU
B18: target 2 MT 5'PFS AGG 3'PFS UCC (mixed)
RNA 1: CACCCGUGCAAAAUUGCAGGGGUCUAAAACCUUCUCCAAAUUGUUUCAUCCU
RNA 2: GGGAAUGGAUCCACAUCUACGAAUUCAGGAGGAUGAAACAAUUUGGAGAAGUCCAGAUCGGAAGAGCACACGU
B19: target 2 MT 5'PFS GCU 3'PFS AGC (mixed)
RNA 1: CACCCGUGCAAAAUUGCAGGGGUCUAAAACCUUCUCCAAAUUGUUUCAUCCU
RNA 2: GGGAAUGGAUCCACAUCUACGAAUUCGCUAGGAUGAAACAAUUUGGAGAAGAGCAGAUCGGAAGAGCACACGU
B20: target 2 MT 5'PFS AAG 3'PFS UAC (mixed)
RNA 1: CACCCGUGCAAAAUUGCAGGGGUCUAAAACCUUCUCCAAAUUGUUUCAUCCU
RNA 2: GGGAAUGGAUCCACAUCUACGAAUUCAAGAGGAUGAAACAAUUUGGAGAAGUACAGAUCGGAAGAGCACACGU
B21: target 2 MT 5'PFS CGG 3'PFS CUC (mixed)
RNA 1: CACCCGUGCAAAAUUGCAGGGGUCUAAAACCUUCUCCAAAUUGUUUCAUCCU
RNA 2: GGGAAUGGAUCCACAUCUACGAAUUCCGGAGGAUGAAACAAUUUGGAGAAGCUCAGAUCGGAAGAGCACACGU
B22: target 2 MT 5'PFS GAA 3'PFS UCA (mixed)
RNA 1: CACCCGUGCAAAAUUGCAGGGGUCUAAAACCUUCUCCAAAUUGUUUCAUCCU
RNA 2: GGGAAUGGAUCCACAUCUACGAAUUCGAAAGGAUGAAACAAUUUGGAGAAGUCAAGAUCGGAAGAGCACACGU
B23: target 2 MT 5'PFS GGA 3'PFS CGA (mixed)
RNA 1: CACCCGUGCAAAAUUGCAGGGGUCUAAAACCUUCUCCAAAUUGUUUCAUCCU
RNA 2: GGGAAUGGAUCCACAUCUACGAAUUCGGAAGGAUGAAACAAUUUGGAGAAGCGAAGAUCGGAAGAGCACACGU

This data set deals with T1, EsCas13d, nuclease-dead (Eubacterium siraeum, UniProt B0MS50, R295A;H300A;R849A;H854A).
T1 sequence: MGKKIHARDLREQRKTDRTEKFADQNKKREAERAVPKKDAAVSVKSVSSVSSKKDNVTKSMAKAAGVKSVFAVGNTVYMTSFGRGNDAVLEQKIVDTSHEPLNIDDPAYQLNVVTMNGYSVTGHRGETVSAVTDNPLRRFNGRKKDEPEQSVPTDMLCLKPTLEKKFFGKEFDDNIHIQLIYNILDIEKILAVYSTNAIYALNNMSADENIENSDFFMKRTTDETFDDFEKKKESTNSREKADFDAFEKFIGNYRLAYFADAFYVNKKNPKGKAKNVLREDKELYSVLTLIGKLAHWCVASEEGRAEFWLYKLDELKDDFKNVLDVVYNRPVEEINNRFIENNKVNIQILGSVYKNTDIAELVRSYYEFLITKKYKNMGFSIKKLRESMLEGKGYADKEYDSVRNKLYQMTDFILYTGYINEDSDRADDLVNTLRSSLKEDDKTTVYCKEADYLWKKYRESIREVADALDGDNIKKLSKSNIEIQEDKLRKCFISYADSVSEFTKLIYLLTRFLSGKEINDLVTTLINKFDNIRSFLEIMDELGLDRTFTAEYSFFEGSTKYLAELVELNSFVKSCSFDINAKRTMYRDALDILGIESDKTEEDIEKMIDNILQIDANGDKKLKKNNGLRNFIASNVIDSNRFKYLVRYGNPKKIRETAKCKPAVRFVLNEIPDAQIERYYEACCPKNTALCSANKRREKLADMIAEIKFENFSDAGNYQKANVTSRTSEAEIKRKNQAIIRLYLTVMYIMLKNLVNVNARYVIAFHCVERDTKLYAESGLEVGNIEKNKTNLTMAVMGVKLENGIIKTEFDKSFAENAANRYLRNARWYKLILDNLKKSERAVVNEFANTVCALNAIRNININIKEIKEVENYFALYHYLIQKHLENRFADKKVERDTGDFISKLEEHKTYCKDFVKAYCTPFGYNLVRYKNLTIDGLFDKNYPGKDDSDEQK
The data set is described as follows: crRNA (strand 1, pre-loaded); Mg2+; 40 mM Tris-HCl pH 7.5, 150 mM NaCl, 6 mM MgCl2, 1 mM DTT, 0.1% Tween-20, 0.2 mg/ml BSA; 25 C; 10 min per concentration, then washed. Conditions: tags: His6-TwinStrep-SUMO cleaved; N-terminal SNAP kept (SNAP-Surface 488); label: 3' end held by stalled T7 RNA polymerase.
Turning to B1, the dissociation constant Kd was 30 ± 6 nM.

For the molecule B2, the Kd was determined as 22.6 ± 1.1 nM.

With B3, the dissociation constant (Kd) came to 10.7 ± 0.6 nM.

As to B4, the Kd is 34 ± 15 nM.

Regarding B5, binding was put at a Kd of 6.8 ± 1.7 nM.

In turn, B6 displayed a Kd of 16.4 ± 1.6 nM.

For the molecule B7, the Kd was 6.6 ± 0.9 nM.

In turn, B8 displayed a dissociation constant (Kd) of 10.5 ± 1.2 nM.

Regarding B9, the equilibrium dissociation constant (Kd) worked out at 4.4 ± 0.5 nM.

B10 came in with a Kd of 6.1 ± 0.8 nM.

Regarding B11, binding was characterised by a dissociation constant (Kd) of 11.8 ± 1.4 nM.

B12 gave a Kd of 19.9 ± 3.1 nM.

Regarding B13, the Kd turned out to be 3.8 ± 0.5 nM.

The molecule B14 showed an equilibrium dissociation constant (Kd) of 6.2 ± 1 nM.

B15 displayed a Kd of 15.6 ± 3.1 nM.

Consider B16, for which the affinity, expressed as Kd, was 2.94 ± 0.19 nM.

As to B17, the affinity, expressed as Kd, was 9.8 ± 0.8 nM.

Regarding B18, the equilibrium dissociation constant (Kd) stood at 26 ± 4 nM.

Regarding B19, the affinity, expressed as Kd, was 7.8 ± 1.4 nM.

B20: the Kd stood at 4.4 ± 0.5 nM.

B21: the Kd was determined as 7.2 ± 0.9 nM.

In turn, B22 had a Kd of 12.7 ± 3.2 nM.

B23: binding was characterised by a dissociation constant (Kd) of 9.1 ± 0.9 nM.

Source of the values: article PMC10786891, “Massively parallel profiling of RNA-targeting CRISPR-Cas13d”.
